T1: HA-tagged RIP (UniProt Q13546 1-671, limits assumed)
T1 construct: also called HA-RIP; not shown: HA tag
T1 sequence (looked up): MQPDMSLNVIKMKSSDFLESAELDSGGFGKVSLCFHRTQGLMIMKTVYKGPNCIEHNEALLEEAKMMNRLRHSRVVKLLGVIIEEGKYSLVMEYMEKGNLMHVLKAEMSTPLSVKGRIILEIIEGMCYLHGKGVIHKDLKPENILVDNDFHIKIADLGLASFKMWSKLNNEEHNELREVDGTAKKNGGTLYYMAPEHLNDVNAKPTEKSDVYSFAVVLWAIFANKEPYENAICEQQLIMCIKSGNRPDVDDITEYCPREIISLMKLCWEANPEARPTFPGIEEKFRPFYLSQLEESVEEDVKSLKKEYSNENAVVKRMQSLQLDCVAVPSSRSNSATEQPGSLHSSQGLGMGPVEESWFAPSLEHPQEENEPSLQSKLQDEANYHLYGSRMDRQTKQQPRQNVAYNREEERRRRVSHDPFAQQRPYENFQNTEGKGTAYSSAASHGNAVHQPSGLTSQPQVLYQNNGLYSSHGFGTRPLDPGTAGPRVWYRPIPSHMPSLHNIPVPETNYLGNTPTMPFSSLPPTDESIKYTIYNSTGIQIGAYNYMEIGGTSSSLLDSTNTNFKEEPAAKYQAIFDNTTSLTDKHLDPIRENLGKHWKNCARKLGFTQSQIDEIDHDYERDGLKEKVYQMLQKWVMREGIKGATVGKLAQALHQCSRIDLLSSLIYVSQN


What follows are binders tested against T1, HA-tagged RIP (assay: co-immunoprecipitation, HA-RIP and Flag-Apop3 mutant co-transfected in Phoenix-A (293 T) cells, anti-Flag immunoblot).

Row | binding result | Binder
1 | no binding | Flag-tagged Apop3(1-196) (enzyme, not shown: Flag tag) MSCVKLWPSGAPAPLVSIEELENQELVGKDGFGTVFRAQHRKWGYDVAVKIVNSKAISREVKAMASLDNEFVLRLEGVIEKVNWDQDPKPALVTKFMENGSLSGLLQSQCPRPWPLLCRLLKEVVLGMFYLHDQNPVLLHRDLKPSNVLPDPELHVKLADFGLSTFQGGSQSGTGSGEPGGTLGYLAPELFVNVNR
2 | no binding | Flag-tagged Apop3(1-251) (enzyme, not shown: Flag tag) MSCVKLWPSGAPAPLVSIEELENQELVGKDGFGTVFRAQHRKWGYDVAVKIVNSKAISREVKAMASLDNEFVLRLEGVIEKVNWDQDPKPALVTKFMENGSLSGLLQSQCPRPWPLLCRLLKEVVLGMFYLHDQNPVLLHRDLKPSNVLPDPELHVKLADFGLSTFQGGSQSGTGSGEPGGTLGYLAPELFVNVNRKASTASDVYSFGILMWAVLAGREVELPTEPSLVYEAVCNRQNRPSLAELPQAGPE
3 | no binding | Flag-tagged Apop3(287-518) (other, not shown: Flag tag) FQMVENNMNAAVSTVKDFLSQLKSSNRRFSIPESGQGGTEMDGFRRTIENQHSRNDVMVSEWLNKLNLEEPPSSVPKKCPSLTKRSRAQEEQVPQAWTAGTSSDSMAQPPQTPETSTFRNQMPSPTSTGTPSPGPRGNQGAERQGMNWSCRTPEPNPVTGRPLVNIYNCSGVQVGDNNYLTMQQTTALPTWGLAPSGKGRGLQHPPPVGSQEGPKDPEAWSRPQGWYNHSGK

Source: patent US7223850 (RIGEL PHARMACEUTICALS, dated 2007)
